Measured values as given in the nanobody polyreactivity screen of Harvey et al. (2022).

Experiment: yeast display, Sf9 membrane polyspecificity reagent, FACS + sequencing; frameworks hold sequencing errors
Method in brief: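 Sorting gates, low and high (top ~1%), were placed on anti-HA fluorescence to track expression and on streptavidin fluorescence to track reagent binding. A clone's polyreactivity label is taken from the gate it came out of. The reagent was 10% biotinylated, detergent-solubilized Sf9 membrane, applied for 1 hour at 4 °C to galactose-induced yeast display cells.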

Sequence	polyreactivity (PSR sort gate)
QVQLVESGGGLVQAGGSLRLSCAASGSTFSGYAMGWYRQAPGKERELVAGIRLDGSRTYYADSVKGRFTISRDNAKNTVYLQMNSLKPEDTAVYYCAAPSGTYWTRREYWGQGSQVTVSS	low polyreactivity
QVQLVESGGGLVQAGGSLRLSCAASGSIFSRNDMGWYRQAPGKERELVAAITSDDTSTYYADSVNGRFTISRDNAKNTVYLQMNSLKPEDTAVYYCAADYGNPFDYWGQGTQVTVSS	low polyreactivity
QVQLVESGGGLVQAGGSLRLSCAASGRTFGKYAMGWYRQAPGKERELVAAITNSGGSTYYADSVKGRFTISRDNAKNTVYLQMNSLKPEDTAVYYCNRLGYRGTSKLNHMGYWGQGTQVTVSS	high polyreactivity
QVQLVESGGGLVQAGGSLRLSCAASGIIFSYYTMGWYRQAPGKERELVAAISRTGGRTYYADSVKGRFTISRDNAKNTVYLQMNSLKPEDTAVYYCAAEQQYASICYDYWGQGTEVTVSS	high polyreactivity
QVQLVESGVGLVQAGGSLRLSCAASGRTFDLYAMGWYRQAPGKERELVAAITKGGGSTYYADSVKGRFTISRDNAKNTVYLQMNSLKPEDTAVYYCAARKYKRIYRISSGIGYYWGQGTQVTVSS	high polyreactivity
QVQLVESGGGLVQAGGSLRLSCAASGFIFGYNAMGWYRQAPGKERELVASITYRGGRTYADSVKGRFTISRDNAKNTVYLQMNSLKPEDTAVYYCAAVRHVYVGGFDYWGQGTQVTVSS	high polyreactivity
QVQLVESCGGLVQAGGSLRLSCAASGFIFYDYDMGWYRQAPGKQRELVAAITYSGASTYYADSVKGRFTISRDNAKNTVYLQMNSLKPEDTAVFYCAAVKSRYADAVDYYYWGQGTQVTVSS	low polyreactivity
QGQLVESGGGLVQAGGSLRLSCAASGFIFYKNAMGWYRQAPGKARELVAAITWSGGSTYYADSVKGRFTISRDNAKNTVYLQMNSLKPEDTAVYYCAAGVTWISWVWYDYWGQGTQVTVSS	low polyreactivity
QVQLVESGGGLVQAGGSLRLSCAASGSTFSRYAMGWSRQAPGKERELVAVITGSGGSTYYADSVKGRFTISRDNAKNTVYLQMNSLKPEDTAVYYCNAVYFALSPQYYWAASDYWGQGTQVTVSS	high polyreactivity
QVQLVESGGGIVQAGGSLRLSCAASGSIFSGYAMGWYRQAPGKERELVAAIDWSGGTTYYADSVKGRFTISRDNAKNTVYLQMKSLKPEDTAVYYCAAKYPWYLSKDTLYYWGQGTQVTVSS	low polyreactivity
QVQLVESGGALVQAGGSLRISCAASGRTFQVNTMGWYRQAPGKEMELVAAISSAGRTYYADSVKGRFTISRDNAKNTVYLQMNSLKPEDTAVYYCSAAWSYSYWKARYGYWGQGTQVTVSS	high polyreactivity
QVQLVESGGGLVQAGGSLRLSCAASGSIFSGYAMGWYRQAPGKERELVAAITRSGGRTYYADSVKGRFTISRDNAKNTVYLQMNSLKPEDTAVYYCAARGGPGDDYWGQGTQVTVSS	high polyreactivity
QVQLVESGGGLVQAGGSLRLSCAASGFIFWLYAMGWYIQAPGKERELVASINWSGGDTYYADSVKGRFTISRDNAKNTFYLQMNSLKPEDTAVYYCTAKVLDSKSSFDYWGKGTQVTVSS	low polyreactivity
QVQLVESGVGLVQAGGSLSLSCAASGIIFYWYAMGWYRQAPGKEREMVATITSTGGSTNYADSVKGRFTISRDNAKNSVYVQMNSLKPEYTAVYYCSTSGPQYYSRNFDYWGQGTQVTVSS	low polyreactivity
QVQLVESGGGLVQAGGSLRLSCAASGSTFWFYAMGWYRQAPGKERELVAVISNSGSTYYADSVKGRFTISRDNAKNTVYLQMNSLKPEDTAVYYSNKDGGGDSYWYDYWGQGTQVTVSS	low polyreactivity
VQLVESGGGLVQAGVSLRLSCAASGSTFRPYAMGWYRQAPGKERELVAAITGSGGSTYYADSVKGRFTISRDNAKNTVYLQMNSLKPEDTAVYYCNAVSTWRYYYWGQGTQVTVSS	high polyreactivity
QVQLVESGGGLVQAGGSLRLSCAASGFTFAGNAMGWYRQAPGKERELVAGISRRGGNTYYADSVKGRFTISRDNAKNTVYLQMISLKPEDTAVYYCAARARRRYYYWGQGTQVTVSS	high polyreactivity
QVQLVESGGGLVQAGGRLRLSCAASGITSDVYAMGWYRQAPGKERELVAAISSAGSTYYADSVKGRFTISRDNAKNTVYLQMNSLKPEDTAVYYCDAAGYPQTYLYYYWGQGTQVTVSS	low polyreactivity
QVQLVESGGGLVQAGGSLRLSCAASGSTFNVYGMGCYRQAPGKERELVAAINRDGITYADSVKGRFTISRDNAKNTVYLQMNSLKPEDTAVYYCAAGYSPYKGSAGYYWGQGTQVTVSS	low polyreactivity
QVQLVESGGGLVQAGGSLRLSCAASGSILLPYAMGRYRHAPGKERELVAAITYRGASTHYAASVKGRFTISRDNAKNTVYLQMNSLKQEDPAVYYCAARGWVYYASEMDYWGQGTQGTVSS	low polyreactivity
QVQLEESGGGLVQAGGSLRLSCAASGRTFGSNAMGWYRQAPGKERELVAAIRERGGSTYADSVKGRFTISRDNAKNTVYLQMNSLKPEDTAVYYCAADRSVIWSKNYDYWGQGTQVTVSS	low polyreactivity
QVQLVESGGGLVQAGGSLRLSCAASGLTFKVNAMGWYRQAPGRGRELVAAISVSGGSTYYADSVKGRFTISRDNAKNTVYLQMNSLKPEDTAVYYCNADFYYRYYGAYDYWGQGTQVTVSS	high polyreactivity

Sequence	polyreactivity (PSR sort gate)
QVQIVETGGVLVQAGGSLRLSFADAGLTIYIYAMGWYRQAPGKETELFPAISWIGDSTYYADSVKGLFTISRDNAKNTVYLQLNSLKPEDTAVYYCAADSWRYVAEGLWREYDYWGQGTQVTVSS	low polyreactivity
QVQLVESGGGLVQAGGSLRLSCAASGRIFHYYAMGWYRQAPGKERELVAAIRWSGGDTYYADSVKGRFTISRDNAKNTVYLQMNSLKPEDTAVYYCAAYEHVYEYDYWGQGTQVTVSS	low polyreactivity
QDQHVESGGGLVQAGGRLSLICAASAFISVRNAMGWYRQAPGKERELVAAISSGDTTDYADSLKGRFTISRDNAKNTVYLLMNSLKPEDTAVYYCAAVYSGRYYYWGQGTQVTVSS	low polyreactivity
QVQLVESGGGLVQAGGSLRLSCAASGSIYLWKAMGWYRQAPGKERELVAAIDSGGSTYAESVKGRFTISRDNAKNTVYLQMNSLKPEDTAVYYCAAEIPDEWPYDYWGQGTQVTVSS	low polyreactivity
QVQLVESGGGLVQAGGSLRLSCAASGRTFSYYAMGWYRQAPGKERELVAVITSSGGSTSYADSVKGRFTISRDNAKNTVYLQMNSLKPEDTAVYYCAADPLAVSWAYYLFGVDYWGQGTQVTVSS	high polyreactivity
QVQLVESGGGLVQAGGSLRLSCAASGSIFRNYAMGWYRQAPGKERELVAAISYRGGSTYYADSVKGRFTISRDNAKNTVYLQMNSLKPEDTAVYYCAARTRKAYYYWGQGTQVTVSS	high polyreactivity
QVQLVESGGGLVQAGGSLRLICAASGSIVKNYAMGWYTQAPGKERELVAVISSGGSTNYADSVKGRFTISRDNAKYTVYLHMNSLIPEDTAVYSCAAERKSRGFWYDYWGQGTQVTVSS	high polyreactivity
QVQLVESGGGLVQAGGSLRLSCAASGSTFYSNAMGWYRQAPRKERELVASISWSSGSTYYADSVKGRFTISRDNAKNTVYLQMNSLKPEDTAVYYCATDAGGPYRFGYWGQGTQVTVSS	low polyreactivity
QVQLVESGGGLVQAGGSLRLSCAASGFIFSRNAMGWYRQAPGKERELVAAISSTGGITYYADSVKGRFTISRDNAKITVYLQMNSLKPEDTAVYYCAAGFYGYARHSWYKYWGQGTQVTVSS	high polyreactivity
QVQLVESGGGLVQAGGSLRLSCAASGLIFRYYAMGWYRQAPGKERELVAAISSSGTRTYYADSVKGRFTISRDNAKNTVYLQMNSLKPEDTSVYYCATENQNPTGGYWGQGTQVTVSS	high polyreactivity
QVQLVESGGGLVQAGGSLRLSCAASGSIFGTNTMGWYRQAPGKEREFVAVITGSTTSTYYADSVKWRFTISRDNANNTVYLQMNSLIPEDTAVYYCADEPGSRSYGGDYWGQGTQVTVSS	high polyreactivity
QDQLVESGGGLVQAGGSLRLSCAASGFNFDRYAMGWYRQAPGKERELVAAISRRGGSTYYADSVKGRFTISRDNAKNTVYLQMNSQKPEDTAVYYCAASRPSPRPRYGYWGQGTQVTVSS	high polyreactivity
QVQHVESAGGLVQEAGSLRLRCAASGSTFYSYAMGWSRQAPGKERELVAAISRSGGRTNYADSVKGRFTISRDIAKNTVYLQMNSLKPEDTAVYYCNARHYLSAYDYWGQGTQVTVSS	high polyreactivity
QVQLVESGGGLVQAGGSLRLRCSASGSTIKDYTMGLYRQAPGKERELVAAITDSGGSTYYADSVKGRFTISRDNAKNTVYLQMNSLTPEDTAVYFCAAAVPELYEVRYHDDYWGQGTQVTVSS	low polyreactivity
QDQLEESALGLVQAGGSLRLICAASGRTFQYYTMAWYRPAPAKEREFVAAIRDSGGSTYYADSVKGRFTISRDNAKNTVYLQMNSLKPEDTAVYYCNKVPNGPSNYDYWGQGTQVTVSS	high polyreactivity
QVQLVESGGGLVQAGGSLRLSCAASGSTFDIYAMGCYRQAPGKERELVAAITFSGGSTYADSVKGRFTISRDNAKNTVYFQMNSLKPEDTAVYYCAVDGGEFSSYGYWGQGTQVTVSS	low polyreactivity
QVQLVESGGGLVQAGGSLRLSCAASGLIFYVYAMGWYRQAPGKERELVAAISFRGTSTYADSVKGRFTISRDNAKNTVYFQMNSLKPEDTAVYYCAVTGFDVLWPSLGGELDYWGQGTQVTVSS	low polyreactivity
QVQLVESGGGLVQAGGSLRLSCAASGSIFGYYTMGWYRQAPGKERELVATISRSGGSTYYADSVKGRFTISRDNAKNTVYLQMNSLKPEDTAVYYCAARSWGGYDSRGYWGQGTQVTVSS	high polyreactivity
QVQLVESGGRLVQAGGSLRLSCSASGFTLIHYAMGWYRQAHGKERELVAGITTSGGSTYYADSVKGRFTISRDNAKNTVYLQMNSLKPEDTAFYYCAAGSTTGQTGKVGYWGQGTQVTVSS	high polyreactivity
QVQLVESGGGLVQAGGSLRLSCASSGITFRVYAMGWYRQAPGKERELVAGISRGGRTSYADSVKGRFTISRDNAKNTVYLQMNSLKPEDTAVYYCAARQYRHRVKYYYWGQGTQVTVSS	high polyreactivity
QVQLVESGGGLVQAGGSLRLSCAASGRIFGINAMGWYRQAPGKERELVAAISWRSGSTYYADSVKGRFTISRDNAKNTVYLQMNSLKPEDTAVYYCAAKQDQDYYWGQGTQVTVSS	low polyreactivity
